In paper PMC6391106:

Target: WT murine C3b (mouse) (UniProt P01027)
Test: SPR; BIAcore S200; murine C3b (WT or Asn1115) amine coupled to a CM5 chip (930 ± 10 RU); analytes in 2-fold dilution series in HBST (10 mM HEPES, 150 mM NaCl, 0.005% Tween-20, pH 7.4), 30 μl/min for 200 s; steady-state model

Chain of full-length mouse serum-derived FH (P06909 19-1234): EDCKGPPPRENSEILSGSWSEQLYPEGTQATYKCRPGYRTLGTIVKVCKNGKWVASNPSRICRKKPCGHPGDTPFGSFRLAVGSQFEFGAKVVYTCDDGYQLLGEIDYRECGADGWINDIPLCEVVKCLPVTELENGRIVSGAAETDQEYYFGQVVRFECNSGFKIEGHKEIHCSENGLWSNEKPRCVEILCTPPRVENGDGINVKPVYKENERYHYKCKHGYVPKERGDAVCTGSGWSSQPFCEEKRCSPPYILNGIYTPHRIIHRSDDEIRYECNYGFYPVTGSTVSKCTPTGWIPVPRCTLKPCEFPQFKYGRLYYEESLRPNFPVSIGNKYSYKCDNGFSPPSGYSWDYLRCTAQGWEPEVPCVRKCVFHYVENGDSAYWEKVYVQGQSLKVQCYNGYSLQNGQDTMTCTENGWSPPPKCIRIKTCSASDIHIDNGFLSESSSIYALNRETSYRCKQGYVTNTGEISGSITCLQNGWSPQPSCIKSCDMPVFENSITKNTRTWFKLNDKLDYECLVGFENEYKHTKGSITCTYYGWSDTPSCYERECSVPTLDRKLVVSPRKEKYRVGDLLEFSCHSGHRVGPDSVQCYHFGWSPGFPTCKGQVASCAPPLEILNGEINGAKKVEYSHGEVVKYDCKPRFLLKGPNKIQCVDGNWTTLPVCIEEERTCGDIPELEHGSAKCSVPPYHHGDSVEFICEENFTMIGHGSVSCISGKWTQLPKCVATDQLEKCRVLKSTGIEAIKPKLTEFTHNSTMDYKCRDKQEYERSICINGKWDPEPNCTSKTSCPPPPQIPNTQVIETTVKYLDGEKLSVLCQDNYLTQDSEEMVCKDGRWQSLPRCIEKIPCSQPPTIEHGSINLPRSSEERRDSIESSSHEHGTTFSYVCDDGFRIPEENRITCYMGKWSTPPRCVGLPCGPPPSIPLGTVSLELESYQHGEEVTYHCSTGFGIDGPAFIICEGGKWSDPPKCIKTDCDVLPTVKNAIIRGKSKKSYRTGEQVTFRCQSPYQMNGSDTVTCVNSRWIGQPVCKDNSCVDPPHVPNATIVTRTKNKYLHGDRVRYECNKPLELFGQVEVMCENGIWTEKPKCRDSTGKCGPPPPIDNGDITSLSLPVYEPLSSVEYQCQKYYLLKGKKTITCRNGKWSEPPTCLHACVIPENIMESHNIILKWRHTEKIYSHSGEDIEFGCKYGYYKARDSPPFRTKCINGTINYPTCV

Substance	Kd
full-length mouse serum-derived FH (from UniProt P06909 19-1234) (natural protein)	1.4 µM
recombinant human FH SCRs 19–20 (domain or fragment)	9.4 µM
recombinant murine Crry SCRs 1–5 (domain or fragment)	3.2 µM
recombinant murine FH SCRs 1–5 (domain or fragment)	2.9 µM
